Source: US20230045284

Key:
[1] = molecular target: Recombinant 6xHis-tagged HRas (rHRas; NP_001123914.1), P01112
[2] = molecular target: Recombinant 6xHis-tagged NRas (rNRas; NP_002515.1), P01111
[3] = molecular target: T1, GST-Rit2, Q99578
T1 chain: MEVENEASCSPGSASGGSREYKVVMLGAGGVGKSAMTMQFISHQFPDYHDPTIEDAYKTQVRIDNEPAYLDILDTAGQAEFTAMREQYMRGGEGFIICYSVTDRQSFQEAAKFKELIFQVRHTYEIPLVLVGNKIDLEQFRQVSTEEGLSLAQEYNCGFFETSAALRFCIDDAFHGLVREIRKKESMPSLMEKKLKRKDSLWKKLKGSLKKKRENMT

[4] = molecular target: GST-HRas (rGST-HRas), P01112
[5] = molecular target: Recombinant 6xHis-tagged KRas (rKRas; KRas4B NP_004976.2), P01116

Recombinant 6xHis-tagged NRas (rNRas; NP_002515.1), P01111, sequence (P01111 whole entry): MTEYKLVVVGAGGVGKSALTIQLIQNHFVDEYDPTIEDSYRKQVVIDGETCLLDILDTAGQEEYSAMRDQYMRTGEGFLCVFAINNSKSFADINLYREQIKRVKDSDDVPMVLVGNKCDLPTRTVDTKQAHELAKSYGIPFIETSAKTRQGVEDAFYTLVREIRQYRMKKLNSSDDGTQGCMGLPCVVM
GST-HRas (rGST-HRas), P01112, sequence (P01112 whole entry, looked up): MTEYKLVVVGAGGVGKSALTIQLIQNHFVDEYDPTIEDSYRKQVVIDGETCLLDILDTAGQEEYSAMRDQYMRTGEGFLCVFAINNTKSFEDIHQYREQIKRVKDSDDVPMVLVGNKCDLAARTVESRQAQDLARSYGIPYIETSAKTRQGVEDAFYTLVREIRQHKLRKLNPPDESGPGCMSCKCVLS
Recombinant 6xHis-tagged HRas (rHRas; NP_001123914.1), P01112, sequence (P01112 whole entry, looked up): as above

B1: Recombinant 6xHis-tagged DUF5Vv (rDUF5Vv; V. vulnificus CMCP6 MARTXVv Q3596-L4089) (protein)
chain: QELKERAKVFAKPIGASYQGILDQLDLVHQAKGRDQIAASFELNKKINDYIAEHPTSGRNQALTQLKEQVTSALFIGKMQVAQAGIDAIAQTRPELAARIFMVAIEEANGKHVGLTDMMVRWANEDPYLAPKHGYKGETPSDLGFDAKYHVDLGEHYADFKQWLETSQSNGLLSKATLDESTKTVHLGYSYQELQDLTGAESVQMAFYFLKEAAKKADPISGDSAEMILLKKFADQSYLSQLDSDRMDQIEGIYRSSHETDIDAWDRRYSGTGYDELTNKLASATGVDEQLAVLLDDRKGLLIGEVHGSDVNGLRFVNEQMDALKKQGVTVIGLEHLRSDLAQPLIDRYLATGVMSSELSAMLKTKHLDVTLFENARANGMRIVALDANSSARPNVQGTEHGLMYRAGAANNIAVEVLQNLPDGEKFVAIYGKAHLQSHKGIEGFVPGITHRLDLPALKVSDSNQFTVEQDDVSLRVVYDDVANKPKITFKGSL
With B1 the “in vitro endopeptidase assay, SDS-PAGE” value [1] was “showed the cleavage of rKRas, rHRas, and rNRas by rDUF5Vv”, the “in vitro endopeptidase assay, SDS-PAGE” value [2] was “The cleavage of rNRas was less efficient compared to rKRas and rHRas” and the “in-vitro cleavage of GST-fusion GTPases” value [3] was “Rit2 was not cleaved at all”. The “in vitro cleavage of rGST-GTPase, SDS-PAGE” value [4] was “DUF5Vv could cleave only HRas”, the “in vitro cleavage with varying concentrations of EDTA, equimolar 10 µM, 30 minutes at 37 C” value [5] was “Cleavage was still observed” and the “in vitro cleavage with varying concentrations of phenanthroline, equimolar 10 µM, 30 minutes at 37 C” value [5] was “Cleavage was still observed”. The “in vitro endopeptidase assay, SDS-PAGE” value [5] was “showed the cleavage of rKRas, rHRas, and rNRas by rDUF5Vv” and the “in-vitro cleavage reaction of purified proteins” value [5] was “rKRas was efficiently cleaved within 10 min in a concentration-dependent manner”.

B2: Recombinant 6xHis-tagged DUF5Pa (P. asymbiotica ATCC43949 hypothetical protein, P41-V532) (protein)
chain: MVFEHDKTVERKRKPSIQLGNDKEKSSEQALELPQSKQNNPLLHDLITSNNLRKEAAVFAKQIGPSYQGILDGLEHLHNLSGNEQLTAGFELHRRITRYLEEHPDSKRNAALRRTQTQLGDLMFTGTLQEVRHPLLEMAETRPAMASQIYQIARDEAKGNTPGLTDLMVRWVKEDPYLAAKSGYQGKIPNDLPFEPKFHVELGDQFGEFKTWLDTAQNQGLLTHTRLDEQNKQVHLGYSYNELLDMTGGVESVKMAVYFLKEAAKQAEPGSAKSQEAILLNRFANPAYLTQLEQGRLAQMEAIYHSSHNTDVAAWDQQFSPDALTQFNHQLDNSVDLNSQLSFLLKDRQGLLIGESHGSDLNGLRFVEEQMDALKAHGVTVIGLEHLRSDLAQPLIDKFLTSENEPMPAELAAMLKTKHLSVNLFEQARSKQMKIIALDNNSTTRPAEGEHSLMYRAGAANNVAVERLQQLPAEEKFVAIYGNAHLQSHEGIDHFLPGITHRLGLPALKVDENNRFTAQADNINQRKCYDDVVEVSRIQLTS
For B2, the “in vitro cleavage, SDS-PAGE” value [5] was “shown to also cleave rKRas”.

B3: Recombinant 6xHis-tagged DUF5Ah (A. hydrophila ATCC7966 MARTXAh P3069-V3570) (protein)
chain: PGKTGVTERTARLFADVYSPDELKKAAQVFAKPIGESYQQILDQLATLHGASGQAKVEAALRLNNLIDDYLVKHEGSGRNPALSKLQSQLHGNLYRGELASLQAEVTALAKTRPDLAAIVIGKAAEEAQGQHPGLTQMVLRWAAQDPYLAAKAGYQGVVPADLPFDARFHIALGEQHDDLKKWLTEAQGKGLLNRAVLDDTRKVLHLGYSYQELQDMTGEQSAQMAVYFIKEAAKQAAPGSELSAELIMLDKFGDRRYLGELESRRIAQIENIYHSSKQTDVAAWDARYGGDALRTLNNQLDGESTLAGQLSRLLDNRNGLLIGETHGSDVNGLRFVNEQMDALKIQGVTVIALEHLRSELAQPLIDRYLAGGEMSPELTSMLKNKHLEPSLFERARERGMRIVALDDGSTARPAIAGTEHGLMYRAGAANNVAVEVLGKLPAGEKFVAIYGSAHLGSHKGIEGFVPGITHRLGLPALKVDADNRFHLQADDVSQRVEYADVGRKWTPVAAL
In the case of B3, the “in vitro cleavage, SDS-PAGE” value [5] is reported as “The recombinant protein rDUF5Ah was able to cleave rKRas in the in vitro reaction”.
